Source: FireProtDB (doi:10.1073/pnas.90.18.8367)

B1: DNA-Binding protein, P69542 (parent)
chain: MIKVEIKPSQAQFTTRSGVSRQGKPYSLNEQLCYVDLGNEYPVLVKITLDEGQPAYAPGLYTVHLSSFKVGQFGSLMIDRLRLVPAK

Variants of: B1
Settings: Enterobacteria phage fd; pH 7; 25 °C; GdnHCl; CD; MOPS 50 mM; NaCl 100 mM; reversible: yes; structure 1VQB; whole UniProt chain shown

Row | Variant | ddG of mutation (higher = less stable) [kcal/mol] | unfolding free energy [kcal/mol]
1 | F13T | 0.7 | 
2 | L28V | -1.1 | 
3 | E30F | -2 | 
4 | L32Y | -1 | 
5 | C33M | 3.5 | 
6 | C33V | 0.2 | 
7 | V35A | 2.2 | 
8 | V35C | 1.4 | 
9 | V35I | 0.7 | 
10 | V35L | 2.7 | 
11 | V35M | 1.1 | 
12 | V45C | 0.1 | 
13 | I47F | 2 | 
14 | I47L | 0.7 | 
15 | I47M | 2.2 | 
16 | I47V | 2.6 | 
17 | H64C | -0.5 | 
18 | F68L | 4.3 | 
19 | F73W | -0.8 | 
20 | R82C | 1.5 | 
21 | A86T | 0.7 | 
22 | A86V | -0.5 | 
23 | I6V E30F |  | 0.71
24 | I6V M77I |  | 0.34
25 | F13T E30F |  | 1.59
26 | E30F A86T |  | 1.17
27 | E30F A86V |  | 2.05
28 | L32Y R82C |  | 0.15
